The text below walks through data of PMC1976466 (Nucleic Acids Research, 2007).

For one series, the target named is human topoisomerase IIα (human, UniProt P11388 1-1531). The series can be described thus: pull-down.
The target in series [1] is DNA topoisomerase II alpha (Homo sapiens, UniProt P11388 1-1531). Briefly: EMSA.
Sequence of DNA topoisomerase II alpha (P11388 whole entry): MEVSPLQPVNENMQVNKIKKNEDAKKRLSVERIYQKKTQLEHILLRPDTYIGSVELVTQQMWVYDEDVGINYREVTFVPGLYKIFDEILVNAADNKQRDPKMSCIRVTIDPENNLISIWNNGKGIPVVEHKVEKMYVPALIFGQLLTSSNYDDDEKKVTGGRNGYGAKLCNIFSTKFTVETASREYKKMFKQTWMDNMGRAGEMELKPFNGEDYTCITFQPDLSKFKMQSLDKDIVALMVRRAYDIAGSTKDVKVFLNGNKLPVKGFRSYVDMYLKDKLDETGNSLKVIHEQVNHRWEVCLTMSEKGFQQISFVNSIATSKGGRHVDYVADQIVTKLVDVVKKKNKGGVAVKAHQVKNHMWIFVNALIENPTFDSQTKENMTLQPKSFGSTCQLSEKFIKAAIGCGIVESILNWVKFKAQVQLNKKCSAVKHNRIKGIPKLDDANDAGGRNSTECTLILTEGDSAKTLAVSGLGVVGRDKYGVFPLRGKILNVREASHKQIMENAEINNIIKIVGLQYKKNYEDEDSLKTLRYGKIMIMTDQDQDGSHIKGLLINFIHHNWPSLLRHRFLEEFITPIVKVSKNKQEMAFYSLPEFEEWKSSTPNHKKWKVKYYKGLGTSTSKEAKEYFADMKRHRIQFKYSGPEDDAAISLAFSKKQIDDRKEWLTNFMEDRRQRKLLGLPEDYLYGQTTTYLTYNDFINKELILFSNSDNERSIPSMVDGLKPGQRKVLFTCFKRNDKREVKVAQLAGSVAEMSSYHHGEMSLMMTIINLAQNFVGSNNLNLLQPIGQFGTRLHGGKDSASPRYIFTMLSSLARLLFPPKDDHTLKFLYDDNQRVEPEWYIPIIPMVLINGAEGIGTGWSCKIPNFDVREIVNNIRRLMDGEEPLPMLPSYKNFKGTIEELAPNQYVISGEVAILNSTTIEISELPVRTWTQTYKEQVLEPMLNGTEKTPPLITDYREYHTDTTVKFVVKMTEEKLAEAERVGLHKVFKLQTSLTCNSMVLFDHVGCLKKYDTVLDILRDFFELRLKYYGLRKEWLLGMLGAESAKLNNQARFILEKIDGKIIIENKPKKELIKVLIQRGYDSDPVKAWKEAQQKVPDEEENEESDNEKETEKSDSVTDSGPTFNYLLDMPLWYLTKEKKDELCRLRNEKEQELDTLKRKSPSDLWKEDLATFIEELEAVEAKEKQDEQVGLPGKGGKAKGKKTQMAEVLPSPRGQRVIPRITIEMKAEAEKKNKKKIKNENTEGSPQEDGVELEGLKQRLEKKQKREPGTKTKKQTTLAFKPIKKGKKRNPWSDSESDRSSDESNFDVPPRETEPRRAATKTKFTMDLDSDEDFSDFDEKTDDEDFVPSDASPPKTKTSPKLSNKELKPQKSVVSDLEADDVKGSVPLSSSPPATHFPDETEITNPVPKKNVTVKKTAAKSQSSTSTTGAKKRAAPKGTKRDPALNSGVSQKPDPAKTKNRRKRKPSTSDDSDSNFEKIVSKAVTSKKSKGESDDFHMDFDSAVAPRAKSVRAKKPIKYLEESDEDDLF

Sequence of human topoisomerase IIα (P11388 whole entry): as above

B1: GST-HMGB1 domain A (residues 1-88) (domain or fragment, rat, UniProt P63159 1-88, looked up)
chain: MGKGDPKKPRGKMSSYAFFVQTCREEHKKKHPDASVNFSEFSKKCSERWKTMSAKEKGKFEDMAKADKARYEREMKTYIPPKGETKKK
Consider B1, for which, in the series with human topoisomerase IIα, the binding result is reported as “binds”.

B2: 36-bp duplex oligo_1/oligo_2 (dsDNA)
DNA 1: ATGAAATCTAACAATGCGCTCATCGTCATCCTCGGC
DNA 2: GCCGAGGATGACGATGAGCGCATTGTTAGATTTCAT
As to B2, the binding signal in series [1] is ~10 fold increase in topo IIα binding vs no HMGB1 (up to).

B3: GST-HMGB1-ΔC (HMGB1 di-domain A+B, residues 1-180) (domain or fragment, rat, UniProt P63159 1-180, looked up)
chain: MGKGDPKKPRGKMSSYAFFVQTCREEHKKKHPDASVNFSEFSKKCSERWKTMSAKEKGKFEDMAKADKARYEREMKTYIPPKGETKKKFKDPNAPKRPPSAFFLFCSEYRPKIKGEHPGLSIGDVAKKLGEMWNNTAADDKQPYEKKAAKLKEKYEKDIAAYRAKGKPDAAKKGVVKAEK
As to B3, the binding result with human topoisomerase IIα is on record as “binds”.

B4: GST-HMGB1 domain B (residues 85-180) (domain or fragment, rat, UniProt P63159 85-180, looked up)
chain: TKKKFKDPNAPKRPPSAFFLFCSEYRPKIKGEHPGLSIGDVAKKLGEMWNNTAADDKQPYEKKAAKLKEKYEKDIAAYRAKGKPDAAKKGVVKAEK
With B4, the binding result with human topoisomerase IIα is given as “binds”.
